Biological target: T1, FtsZ(D212N) (UniProt P0A9A6 1-383, D212N)
T1 construct: FtsZ, tubulin-like cell division protein, GTPase-defective derivative D212N; Polymerised with 5 mM GTP in the assay; also called FtsZ(D212N) polymers; FtsZ(D212N) protofilaments
T1 sequence (looked up): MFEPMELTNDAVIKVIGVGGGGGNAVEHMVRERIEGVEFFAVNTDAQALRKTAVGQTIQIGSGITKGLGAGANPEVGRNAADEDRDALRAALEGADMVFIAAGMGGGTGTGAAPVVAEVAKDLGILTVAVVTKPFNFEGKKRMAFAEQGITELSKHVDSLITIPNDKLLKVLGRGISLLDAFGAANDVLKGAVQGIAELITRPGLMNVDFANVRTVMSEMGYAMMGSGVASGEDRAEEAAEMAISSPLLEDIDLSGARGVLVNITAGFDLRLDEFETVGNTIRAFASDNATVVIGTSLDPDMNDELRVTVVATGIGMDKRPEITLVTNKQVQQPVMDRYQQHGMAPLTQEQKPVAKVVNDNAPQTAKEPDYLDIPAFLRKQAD
Test: co-sedimentation; FtsZ(D212N) 5 µM with GTP 5 mM, SBS17 DNA 2.5 µM and SlmA derivative 5 µM, room temperature 15 min; 80,000 rpm, TLA100.2 rotor, 15 min; supernatant and pellet on SDS-PAGE, Coomassie
Settings: both partners purified

- binding result: binds
B1: SlmA(WT) (natural protein, Escherichia coli, UniProt P0C093 1-198, looked up)
chain: MAEKQTAKRNRREEILQSLALMLESSDGSQRITTAKLAASVGVSEAALYRHFPSKTRMFDSLIEFIEDSLITRINLILKDEKDTTARLRLIVLLLLGFGERNPGLTRILTGHALMFEQDRLQGRINQLFERIEAQLRQVLREKRMREGEGYTTDETLLASQILAFCEGMLSRFVRSEFKYRPTDDFDARWPLIAAQLQ
notes: SlmA, nucleoid occlusion factor, TetR-like protein of Escherichia coli; Stood in the assay with SBS17 DNA (SlmA-SBS complex); Serves also as the parent for mutation effects seen with the BACTH fusions; also called wild-type SlmA
